{"source": "patent US20160040149A1", "about": "“Compositions Having Dicamba Decarboxylase Activity and Methods of Use” (priority 2013, published 2016)", "test": "Saturation mutagenesis of SEQ ID NO:109: dicamba decarboxylation activity of point mutants (CO2 released), fold of backbone (Tables 7, 8, Megatable 1)", "settings": "decarboxylation activity (CO2 released) of point mutant vs unmutated backbone protein; backbone SEQ ID NO: 109"}
{"molecule": "7 (protein, listed as Legionella pneumophila) MAIVDFETHFITEACIDYLTQRQEVPKLVPELNGAYTMCFTPDVSLFHTSALMEELLSLNEQRLAIMDQAGVTIQVLSLTTINGIDSCPGDENKSTALAREVNDQLYSAIQRHPERFKGFASISPYDVKEGVKELERAISQLGFVGWLTHSNFGEDNYLDDKTYWPLLEAAEGLNIPIYLHPNVPIMREFGKYGFALGGSALGFEFDTALCLMRMILGGVFDAFPKLKIMLGHLGETMPFLMERLDHLYRIPDLKAYRPSIQRIPSEVLRQNVYITTSGRFFVPALRYVLEVMGEDRVLFASDYPMESLLDATRFIQDSDLSNQTKQKIFSINAKNLNLI", "values": [{"measurement": "Fold Activity", "result": 1.3, "unit": "fold"}]}
{"molecule": "102 (protein, listed as Lactobacillus plantarum) MATKTFKTLDDFLGTHFIYTYDNGWEYEWYAKNDHTVDYRIHGGMVAGRWVTDQKADIVMLTEGIYKISWTEPTGTDVALDFMPNEKKLHGTIFFPKWVEEHPEITVTYQNEHIDLMEQSREKYATYPKLVVPEFANITYMGDAGQNNEDVISEAPYKEMPNDIRNGKYFDQNYHRLNK", "values": [{"measurement": "Fold Activity", "result": 2.6, "unit": "fold"}]}
{"molecule": "6 (protein, Treponema brennaborense) MAEILSPEESIYYSKLSNDILAEGIKKNPTRFRGFAALPTPDPIQAAMELERCIKLGGFVGAIINGHINGHYLDEIQFDPILEAADALDVPLYIHPAVPPKAIIDTYYKMNDTYAQTVMVSGGWGWHIETGVHVLRLISSGVFDRHPNLKIVIGHLGEGLPFFMHRLNNAIGGNLKKSYSTYLKENIYYTISGFNDPDLFQFVLKKVGENNIMFSSDYPFNFPKREVELFNELNISEEVREKISFKNAERILKI", "values": [{"measurement": "Fold Activity", "result": 0.9, "unit": "fold"}]}
{"molecule": "97 (protein, listed as Sphingobium sp.) MAMMIIDCHGHYTVLPKAHDEWREQQKAAFKAGQPAPPYPEISDDEIRETIEANQLRLIKERGADMTIFSPRASAMAPHVGDQSVAVPWAQACNNLIARVVDLFPETFAGVCMLPQSPEADMTSSIAELERCVNELGFIGCNLNPDPGGGHFKHPPLTDRFWYPFYEKMVELDVPAMIHVSGSCNPAMHATGAYYLAADTIAFMQLLQGNLFADFPTLRFIIPHGGGAVPYHWGRFRGLADMLKQPSLDTLLMNNVFFDTCVYHQPGINLLADVIDNKNILFGSEMVGAVRGIDPTTGHYFDDTKRYIDALDISDQERHAIFEGNTRRVFPRLDAKLKARGL", "values": [{"measurement": "Fold Activity", "result": 2.9, "unit": "fold"}]}
{"molecule": "99 (protein, listed as Ralstonia solanacearum) MAIIDCHGHFTTAPTALEDWRKRQIANLATPALGPSPDDLKISDDALTEAIRANQLRLMQARGSDLTIFSPRASFMAHHIGDFHTSATWAAICNALCHRVSQLFPDHFVGAAMLPQSPGVDIRTCIPELARCIVDYGFVGVNLNPDPSGGHWTSPPLSDPYWFPLYEKLVEYDVPAMIHVSTSCNACFHTTGAHYLNADTTAFMQVLTSDLFRRFPTLKFVIPHGGGAVPYHWGRFRGLAQELKTPPLQEHLLHNVFFDTCVYHQPGIDLLTRVIPVDNILFASEMIGAVRGIDPETGHPFDDTRRYIDQAHTLSAEDRHKIYEGNARRVYPRLDARLKARGR", "values": [{"measurement": "Fold Activity", "result": 1.7, "unit": "fold"}]}
{"molecule": "104 (protein, Plasmodium Vivax) MANILQEPIDFLKKEELKNIDLSQMSKKERYKIWKRIPKCELHCHLDLCFSADFFVSCIRKYNLQPNLSDEEVLDYYLFAKGGKSLGEFVEKAIKVADIFHDYEVIEDLAKHAVFNKYKEGVVLMEFRYSPTFVAFKYNLDIELIHQAIVKGIKEVVELLDHKIHVALMCIGDTGHEAANIKASADFCLKHKADFVGFDHGGHEVDLKEYKEIFDYVRESGVPLSVHAGEDVTLPNLNTLYSAIQVLKVERIGHGIRVAESQELIDMVKEKNILLEVCPISNVLLKNAKSMDTHPIRQLYDAGVKVSVNSDDPGMFLTNINDDYEELYTHLNFTLEDFMKMNEWALEKSFMDSNIKDKIKNLYF", "values": [{"measurement": "Fold Activity", "result": 2.1, "unit": "fold"}]}
{"molecule": "107 (protein, listed as Rhodopseudomonas palustris) MAIIDIHGHYTTAPKALEDWRNRQIAGIKDPSVMPKVSELKISDDELQASIIENQLKKMQERGSDLTVFSPRASFMAHHIGDFNVSSTWAAICNELCYRVSQLFPDNFIGAAMLPQSPGVDPKTCIPELEKCVKEYGFVAINLNPDPSGGHWTSPPLTDRIWYPIYEKMVELEIPAMIHVSTSCNTCFHTTGAHYLNADTTAFMQCVAGDLFKDFPELKFVIPHGGGAVPYHWGRFRGLAQEMKKPLLEDHVLNNIFFDTCVYHQPGIDLLNTVIPVDNVLFASEMIGAVRGIDPRTGFYYDDTKRYIEASTILTPEEKQQIYEGNARRVYPRLDAALKAKGK", "values": [{"measurement": "Fold Activity", "result": 1.7, "unit": "fold"}]}
{"molecule": "103 (protein, Plasmodium yoelii yoelii) MAMEIPTEEIKFLKKEDVQNIDLNGMSKKERYEIWRRIPKVELHCHLDLTFSAEFFLKWARKYNLQPNMSDDEILDHYLFTKEGKSLAEFIRKAISVSDLYRDYDFIEDLAKWAVIEKYKEGVVLMEFRYSPTFVSSSYGLDVELIHKAFIKGIKNATELLNNKIHVALICISDTGHAAASIKHSGDFAIKHKHDFVGFDHGGREIDLKDHKDVYHSVRDHGLHLTVHAGEDATLPNLNTLYTAINILNVERIGHGIRVSESDELIELVKKKDILLEVCPISNLLLNNVKSMDTHPIRKLYDAGVKVSVNSDDPGMFLSNINDNYEKLYIHLNFTLEEFMIMNNWAFEKSFVSDDVKSELKALYF", "values": [{"measurement": "Fold Activity", "result": 1.7, "unit": "fold"}]}
{"molecule": "105 (protein, Deinococcus radiodurans) MAIDFHVHLDLYPDPVAVARACEERQLTVLSVTTTPAAWRGTLALAAGRPHVWTALGFHPEVVSERAADLPWFDRYLPETRFVGEVGLDGSPSLRGTWTQQFAVFQHILRRCEDHGGRILSIHSRRAESEVLNCLEANPRSGTPILHWYSGSVTELRRAISLGCWFSVGPTMVRTQKGAALIRSMPRDRVLTETDGPFLELDGQAALPWDVKSVVEGLSKIWQIPASEVERIVKENVSRLLGTVR", "values": [{"measurement": "Fold Activity", "result": 0.9, "unit": "fold"}]}
{"molecule": "106 (protein, listed as Pyrococcus horikoshii) MAGMKFIKNLHVSKLVIDSMKALINGTIYTSFNPLKKVSGLVISHGKVIYAGDSEVAKKIVELSGGEIVDLKGKYVMPAFFDSHLHLDELGMSLEMVDLRGAKSIEELIQRLKRGKGRIIFGFGWDQDELGEWPTRKELNAIDKPVFIYRKCFHVAVANDKMLELLNLTPSKDFDEDTGIIKEKSLEEARKVINERVLTVEDYVYYIKRAQEHLLDLGVKSVSFMSVNEKALRALFYLEREGKLSINVFAYVTPEVLDKLESIGLGRFQGNRLTIAGVKLFTDGSLGARTALLSKPYSDDPSTSGQLVMEREELIRITEKARSLGLDVAIHAIGDKALDVALDVFETTGFPGRIEHASLVRDDQLERVKNLKVRLSVQPHFIISDWWIVERVGEERVKWVYRFKDLMKVAELGFSTDSPIEPADPWLTVDAAVNRGKGKVKLYELTKDQALDIKDALHSYTYGSARVSLASDIGKLEPGFKAEYIILDRDPLVVK", "values": [{"measurement": "Fold Activity", "result": 0.8, "unit": "fold"}]}
{"molecule": "101 (protein, listed as Aquifex aeolicus) MAQKIALCITGASGVIYGIKLLQVLEELDFSVDLVISRNAKVVLKEEHSLTFEEVLKGLKNVRIHEENDFTSPLASGSRLVHYRGVYVVPCSTNTLSCIANGINKNLIHRVGEVALKERVPLVLLVREAPYNEIHLENMLKITRMGGVVVPASPAFYHKPQSIDDMINFVVGKLLDVLRIEHNLYKRWRG", "values": [{"measurement": "Fold Activity", "result": 1.8, "unit": "fold"}]}
{"molecule": "96 (protein, Aspergillus nidulans) MAPLIVDVHTHVYPPAYMQMLRSRKTVPYVHDPSNNRDPRLIILSSDDDASIPLDQRGRPVDSSYWDINVKLSFMRQHGINCSVISLANPWLDFVEPAEAQMWAERINDDLEKTCATVNKAADPGNTLTLDQKETLFAFGALPLSAPSSESVVAEIKRLKTLEHLRGVIMGTSGLGKGLDDARLDPVWEALQETDMLMFLHPHYGLPEEAYGGPETTGRYGHVLPLALGFPLETTIAVTRMLLSGVFDRFPRLKILLAHSGGTLPFLAGRIESCILHERKFISGGGDVQGPQRSVWDVLKTNIYLDAVVYGKPGLEAAMTASGSDRLLFGTDHPFFPPLDSKDNSWPSVTTNYQAIHATFDTNSKTVADVLGGNAARILNLK", "values": [{"measurement": "Fold Activity", "result": 1.1, "unit": "fold"}]}
{"molecule": "123 (protein, Dicamba decarboxylase variant clone: S03902153) MAQGKVALEEHFAIPETLQDSAGFVPGDYWKELQHRLLDIQDTRLKLMDAHGIETMILSLAAPAVQAIPDRRKAIEIARRANDVLAEECAKRPDRFLAFAALPLQDPDAATEELQRCVNDLGFVGALVNGFSQEGDGQTPLYYDLPQYRPFWGEVEKLDVPFYLHPRNPLPQDSRIYDGHPWLLGPTWAFAQETAVHALRLMASGLFDEHPRLNIILGHMGEGLPYMMWRIDHRVAWVKLPPRYPAKRRFMDYFNENFHITTSGNFRTQTLIDAILEIGADRILFSTDWPFENIDHASDWFNATSIAEADRVKIGRTNARRLFKLDGA", "values": [{"measurement": "Fold Activity", "result": 1.3, "unit": "fold"}]}
{"molecule": "124 (protein, Dicamba decarboxylase variant clone: S03969214) MAQGKVALEEHFAIPETLQDSAGFVPGDYWKELQHRLLDIQDTRLKLMDAHGIETMILSLAAPAVQAIPDRRKAIEIARRANDFLAEECAKRPDRFLAFAALPLQDPDAATEELQRCVNDLGFVGALVNGFSQEGDGQTPLYYDLPQYRPFWGEVEKLDVPFYLHPRNPLPQDSRIYDGHPWLLGPTWAFAQETAVHALRLMASGLFDEHPQLNIILGHMGEGLPYMMWRIDHRVAWGKLPPAYPAKRRFMDYFNENFHITTSGNFRTQTLIDAILEIGADRILFSTDWPFENIDHASDWFNATSIAEADRVKIGRTNARRLFKLDGD", "values": [{"measurement": "Fold Activity", "result": 1.4, "unit": "fold"}]}
{"molecule": "98 (protein, Xanthomonas campestris pv.) MAIIDCHGHYTTAPAAHDAFRKAQIAHHDDPQQPAPQYPHISDDALRESIEQHQLRLLRERGADMTIFSPRASTMAHHIGNEAVSQVWTQRCNDLIARVVQLYPHTFIGVCQLPQSPGVPISHSIAELERCVNELGFVGCNLNPDPSGGHWNGVPLTDRAWYPFFEKMVELDVPAMVHVSGSCNANFHATGAHYLNADTTAFMQFLEGDLFRDFPSLRFIIPHGGGAVPYHWGRFRGLADMLGKPPLATHVMRNVFFDTCVYHQPGIDLLFEVIDIDNILFGSEMVGAVRGIDPQTGHYFDDTKRYIDALTISDADKRKVFEGNARRVYPRLDAQLRARGL", "values": [{"measurement": "Fold Activity", "result": 2.3, "unit": "fold"}]}
